Source: article PMC4474691, “Leukemia-Associated Mutations in Nucleophosmin Alter Recognition by CRM1: Molecular Basis of Aberrant Transport” (PLoS ONE, 2015)
Numbering of substitutions follows the chain as printed. One block for each molecule: values may come before it.

Target: T1, CRM1^HA (Mus musculus, UniProt Q6P5F9, L431A/V430A/V432A)
T1 construct: His-ZZ (cleaved yes); made in house; host or cells: Escherichia coli BL21-CodonPlus (DE3)
Test: Isothermal titration calorimetry, CRM1^HA / NES
Type: binding
Settings: ITC, TFP-NES titrated onto CRM1^HA, 20°C, 20 mM HEPES pH 7.4; rounded; read-out: KD
Protocol: Isothermal titration calorimetry (ITC)
ITC measurements were carried out using a VIP-ITC MicroCalorimeter (MicroCal, Inc., Northampton, MA). TFP and YFP constructs, as well as CRM1^HA, were dialyzed in a buffer containing 20 mM HEPES, pH 7.4, 50 mM NaCl, 1 mM TCEP, 1 mM MgCl2, and degassed prior to the experiment. Untagged peptides (AS: QDLCLAVEEVSLRK, AL: EAIQDLCLAVEEVSLRK, ES: QDLWQSLAQVSLRK and EL: EAIQDLWQSLAQVSLRK), N-acetylated and 95% pure, were purchased from Proteogenix (Schiltigheim, France) and resuspended in the ITC buffer. Measurements were performed at 20°C. TFP-NES, YFP-NES or NES peptides at 35–180 μM were titrated onto CRM1^HA at 2–14 μM. Injections of 6 μL were performed at 320 seconds interval (the first injection always was of 1 μL and is not considered in data analysis). […]
The reaction heat of each injection is related to the calorimetric enthalpy of binding, ΔH^0. The binding isotherms, ΔH^0 vs. molar ratio, were analyzed with an independent binding sites model using MicroCal Origin software. […] The Gibbs free energy of binding ΔG^0 and the entropy ΔS^0 are determined from the basic thermodynamic expressions: ΔG^0 = -RTlnKA = ΔH^0−TΔS^0, where R and T are the gas constant and the absolute temperature, respectively. […]

T1 sequence (Q6P5F9 1-1062 V430A/L431A/V432A limits assumed): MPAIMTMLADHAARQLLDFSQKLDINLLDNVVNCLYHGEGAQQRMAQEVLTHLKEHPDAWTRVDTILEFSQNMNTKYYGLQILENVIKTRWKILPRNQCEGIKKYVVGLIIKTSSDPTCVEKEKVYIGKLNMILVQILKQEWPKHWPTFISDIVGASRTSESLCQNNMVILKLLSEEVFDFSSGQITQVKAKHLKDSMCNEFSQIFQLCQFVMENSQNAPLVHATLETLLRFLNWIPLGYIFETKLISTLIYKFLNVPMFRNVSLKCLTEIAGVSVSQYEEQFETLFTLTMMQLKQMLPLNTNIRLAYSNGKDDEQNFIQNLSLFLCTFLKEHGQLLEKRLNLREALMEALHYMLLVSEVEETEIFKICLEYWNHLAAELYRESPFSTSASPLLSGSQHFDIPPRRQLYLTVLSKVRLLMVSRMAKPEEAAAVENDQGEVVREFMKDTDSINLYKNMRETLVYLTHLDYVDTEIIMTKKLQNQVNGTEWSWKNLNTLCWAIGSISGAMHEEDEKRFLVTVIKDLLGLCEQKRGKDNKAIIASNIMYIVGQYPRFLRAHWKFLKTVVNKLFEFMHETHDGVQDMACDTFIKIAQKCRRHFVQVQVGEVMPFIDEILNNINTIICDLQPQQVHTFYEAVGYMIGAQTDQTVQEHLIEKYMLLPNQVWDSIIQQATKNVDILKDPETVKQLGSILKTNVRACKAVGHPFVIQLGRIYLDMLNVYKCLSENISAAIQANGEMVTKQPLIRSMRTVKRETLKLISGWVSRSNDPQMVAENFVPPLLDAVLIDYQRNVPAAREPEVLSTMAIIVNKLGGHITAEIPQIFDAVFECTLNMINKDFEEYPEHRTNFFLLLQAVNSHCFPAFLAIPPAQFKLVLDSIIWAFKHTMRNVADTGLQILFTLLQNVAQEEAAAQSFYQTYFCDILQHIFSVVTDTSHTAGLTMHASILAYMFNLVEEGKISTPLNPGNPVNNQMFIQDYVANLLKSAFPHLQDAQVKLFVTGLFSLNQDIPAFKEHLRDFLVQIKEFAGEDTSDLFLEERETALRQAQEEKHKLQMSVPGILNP

- Kd: 1000 nM
B1: NPMmutE: AML-associated NPM mutant E; in b62 the value is for its NES as TFP construct (protein)
chain: MEDSMDMDMSPLRPQNYLFGCELKADKDYHFKVDNDENEHQLSLRTVSLGAGAKDELHIVEAEAMNYEGSPIKVTLATLKMSVQPTVSLGGFEITPPVVLRLKCGSGPVHISGQHLVAVEEDAESEDEEEEDVKLLSISGKRSAPGGGSKVPQKKVKLAADEDDDDDDEEDDDEDDDDDDFDDEEAEEKAPVKKSIRDTPAKNAQKSNQNGKDSKPSSTPRSKGQESFKKQEKTPKTPKGPSSVEDIKAKMQASIEKGGSLPKVEAKFINYVKNCFRMTDQEAIQDLWQSLAQVSLRK
modifications: full-length mutant E, pentamer (SEC); for the b62 value only the NES DLWQSLAQVSLRK as TFP fusion was assayed

- Kd: 2400 nM
B2: NPMmutA: AML-associated NPM mutant A; in b62 the value is for its NES as TFP construct (protein)
chain: B1 chain with W288C, Q289L, S290A, L291V, A292E, Q293E
modifications: full-length mutant A, pentamer (SEC); for the b62 value only the NES DLCLAVEEVSLRK as TFP fusion was assayed
